Measured values published in the DeepSol protein solubility set.

Assay: soluble on expression in E. coli; label from the status in PepcDB or PDB records

Sequence	soluble on expression in E. coli
MTSDTIRQTLDELLLDKNGGSSNEARAFFLSQIIDQLKLISSQTDAERQLQKLQLKDPNDNIVKATPPPPPPPPPLISILQQAPPPPPPPPPPTLKAPPPPPILGLKTPSKSLKTPTPRPKECPTSFLPKKEKKTKTRTVQWSKINASVVQDDSVWGKLAKASNVDIDFDLLDNFFGIESLAVSGAAEVVKVGILRALGKNYKKISKKIFNPKKHFFFLLKISNSLNFQKSTRKDAHVELLTAKRSQNVAIMLKQFKNIDELIDDVSQNKPVAEIDALQNLFGMLPQSEEEEALRRYTGDISLLSPPSSFFYRLVQIQFYRLRIETQIFLSDFSRLMRELAPNVEILIRTSQEILTSPTLPRLLLIFVNMGNYLNGNNSQGNAFGFTLNSLWKLIDLKGNKQEFSLLHLLVTCEPDLVAHLQEELSTLKDASQISFDEIKISLKTLRDGRCKLEKQLETCSGASFTQFLELIKIDCKFELDEFGANYDKLTELQYQLADYFCENRNTFQLDECLKIFNFLMNRLQQTLKEHVTRETRKLKKEEKKETQTTRECEKTMKKPEKIDLFDALTASNGGPESPRKRAAGILDMRQKLGNVRIRKLRDVTTLESSFTPPPPPPLESPTDSTSSKENESVKPAKTSTNYEMCNDLESYITSLTRKRASHLPKAPPKEEPKLPEVLPEKSKIALKIEKIPEKIDKPPLPQAAPIIPKLPQKSIKAPSTVTTRSKVPPPTAAAAVRIVSVTTTTTPTKTAELRKPGARSPKTTVATVPKVTVVPVSRVPVAPSTPLSRRMSAPVVRKPTMTAEKKREITMKPSVSTSARPSLINTSSHPMVRSPLPKMSVLEKPKPLRITRPTVIPQSPTVTSSARPSGLRQPAKPKWV	not soluble
MTSGANSSGSYLPSEIRSSKIDDNYLKELNEDLKLRKQELLEMLKPLEDKNNLLFQKLMSNLEEKQRSLQIMRQIMAGKGCEESSVMELLKEAEEMKQNLERKNKMLRKEMEMLWNKTFEAEELSDQQKAPQTKNKADLQDGKEKQQRKMEWVKYQEQNNILQNDFHGKVIELRIEALKNYQKANDLKLSLYLQQNFEPMQAFLNLPGSQGIRIV	not soluble
MTSGLERLSNLLSKKDSVFVSDLLREAKVNELDETLSTTRLNHLIDKGYERITLQLDLGGESPGYLEKDKHYREADAALLNVIYPTNLSKINTRRKEQV	not soluble
MTSIRKWQVGESLPEVTLAPVSRLDLIKYAGASGDYNPIHTIDEEAKKAGLPGIIAHGMWTMGNLAKLFTPYYEEGFVQDYFVRFQSMVFLNDVITLKATVKEKDKKAIRFAVAAVNQHGKEVIKGEAVFSLYE	not soluble
MTSSNEKLPKINHDNEVFALLYKILSSEVQTIKGEDNEKVNQLRVDITISEISQLTDKMKKAFLEQPALLEISNEPITVVADMHGQSIHLLRIFLTNEAPPNQKYLFLGDYVDRGSQSVVVMCLLFCMKHRYPQHVFLLRGNHEDVNTTLNYGFYDECLEQWKNDEGEKVWRMFIDTFNCMPLAAVIGGKVFCAHGGISPWLESLEDINSIERPLVVPPYGLACDLLWSDPAQPERNGWGLSHRGISFTYGKSVVEEFCAKNDIALVIRGHQLFKEMYPQGCVLRFGGRLISLFSALNYEGHKNNSSVLKLEFVGQRVKVKQVLYRCRHYAPLRSNEYLGFRDMKSSSGKNEKRKKGRLESLLG	not soluble
MTSVGVPIKILHEAEGHMVTLETVTGEVYRGKLSEAEDNMNCQLAETVVTFRDGRSHQLDNVFIRGNKIRFMILPDMLKNAPMFKNIGRAQKGAIGMGLGGLDQRGRGRGTAFRRPMGRGGPRGMSRPGGAPTFRG	not soluble
MTSVNLSYPIGEYKPRESISKEQKDKWIQVLEEVPAKLKQAVEVMTDSQLDTPYRDGGWTVRQVVHHLADSHMNSYIRFKLSLTEETPAIRPYDEKAWSELKDSKTADPSGSLALLQELHGRWTALLRTLTDQQFKRGFYHPDTKEIITLENALGLYVWHSHHHIAHITELSRRMGWS	soluble
MTTCGEFLVKQLEAWGVETVFGIPGVHTVELYRGLPGSRIRHVTPRHEQGAGFMADGYARVTGKPGVCFIITGPGMTNILTAMAQAYADSIPMLVISSVNERARLAHGNGYLHELPNQRNLVGNVCAFSHTLMSAEELPAVLARAFAVFDSERPRPVHIELPLDVITAPAEHLALRPRTVTSRPAPALAPLREAAARLRNAKKPLLLLGGGCVEAAAEARALAAALDAPTALTINAKGLLPADHPLLLGSNQSCVPVRELATEADVVLAIGTELGETDYDVVFDGGFALDGELIRIDIDPQQLMRNYTPSLAIHSDARLAMRVLLAELPGGEASPDSPGARRAAAVRQRLAEDFAGWSHYRQLFAAILAEWPDARFVGDSTQTVYSGNHLVDLDEPRRWFNASTGYGTLGYGLPAAIGAKLGEPGRPVVSLMGDGGLQFTLPELASAVEAKVGIVVLLWNNHGYGEIKRYMERREITPLGVDIYTPDFLAIARGFGCAAERARDLEHLRELLRGAPADRPLIVEVLQAAPFHP	not soluble
MTTFERIKKLSAKKGITISQLTSELEMGENSIYRWKTQKPALDKLQKVADYFNVSIDYLLGRTDNPQIDSDIPPEATTLAAHIDPAATEEDMKKILEYIDFIQQKYK	not soluble
MTTILTYPFKNLPTASKWALRFSIRPLSCSSQLRAAPAVQTKTKKTLAKPNIRNVVVVDGVRTPFLLSGTSYKDLMPHDLARAALTGLLHRTSVPKEVVDYIIFGTVIQEVKTSNVAREAALGAGFSDKTPAHTVTMACISANQAMTTGVGLIASGQCDVIVAGGVELMSDVPIRHSRKMRKLMLDLNKAKSMGQRLSLISKFRFNFLAPELPAVSEFSTSETMGHSADRLAAAFAVSRLEQDEYALRSHSLAKKAQDEGLLSDVVPFKVPGKDTVTKDNGIRPSSLEQMAKLKPAFIKPYGTVTAANSSFLTDGASAMLIMAEEKALAMGYKPKAYLRDFMYVSQDPKDQLLLGPTYATPKVLEKAGLTMNDIDAFEFHEAFSGQILANFKAMDSDWFAENYMGRKTKVGLPPLEKFNNWGGSLSLGHPFGATGCRLVMAAANRLRKEGGQYGLVAACAAGGQGHAMIVEAYPK	not soluble
MTTKEFEDTWAYNTIGSPFPDNPVRVKGQQNMYVALWYKFGKPIHGRAWNDNGNVECSFPYNKVELTGARDLGGQIQILTATEQDPTEQFKKTGFWYEWRPYKDRVNDQLLQLVRCGQSTPVIMKTKDGKDLLGYIDMSTEVAAVGVSGKSEQVAGGPIQDMLVLFRNVKAPPKGIKIYDDTWLDLKYRDPFPAARNPIAAGGRKVKSDDGTEMFQYVALWYEHGQPVFGRAYPDSADKTLANFGWGGQENAGAEIGSFQMLVVPDPDILGFEYKWIPYKEAKAGGPFKPLHVGECTPCLLKDANGTERLGNLHMGMEKATAGLAGKDSAVSGPAVGDFLVLCRN	soluble
MTTLKLDTLSDRIKAHKNALVHIVKPPVCTERAQHYTEMYQQHLDKPIPVRRALALAHHLANRTIWIKHDELIIGNQASEVRAAPIFPEYTVSWIEKEIDDLADRPGAGFAVSEENKRVLHEVCPWWRGQTVQDRCYGMFTDEQKGLLATGIIKAEGNMTSGDAHLAVNFPLLLEKGLDGLREEVAERRSRINLTVLEDLHGEQFLKAIDIVLVAVSEHIERFAALAREMAATETRESRRDELLAMAENCDLIAHQPPQTFWQALQLCYFIQLILQIESNGHSVSFGRMDQYLYPYYRRDVELNQTLDREHAIEMLHSCWLKLLEVNKIRSGSHSKASAGSPLYQNVTIGGQNLVDGQPMDAVNPLSYAILESCGRLRSTQPNLSVRYHAGMSNDFLDACVQVIRCGFGMPAFNNDEIVIPEFIKLGIEPQDAYDYAAIGCIETAVGGKWGYRCTGMSFINFARVMLAALEGGHDATSGKVFLPQEKALSAGNFNNFDEVMDAWDTQIRYYTRKSIEIEYVVDTMLEENVHDILCSALVDDCIERAKSIKQGGAKYDWVSGLQVGIANLGNSLAAVKKLVFEQGAIGQQQLAAALADDFDGLTHEQLRQRLINGAPKYGNDDDTVDTLLARAYQTYIDELKQYHNPRYGRGPVGGNYYAGTSSISANVPFGAQTMATPDGRKAHTPLAEGASPASGTDHLGPTAVIGSVGKLPTAAILGGVLLNQKLNPATLENESDKQKLMILLRTFFEVHKGWHIQYNIVSRETLLDAKKHPDQYRDLVVRVAGYSAFFTALSPDAQDDIIARTEHML	soluble
MTTLNSTPRADGFHMPAEWAPQTQVWMVWPERPDNWRLGGKPAQAAHVAIAKAIARFEPVTVAVSAAQYDNARARLDMPNIRVVEMSSNDAWVRDSGPTFVINDRGELRGVNWEFNAWGGFDGGLYAPWNLDSQVGSKVLEIERCPRYATQGFVLEGGSIHVDGEGTLITTEECLLNRNRNPHLTREQIEAVLSDYLAVDKIIWLPDGLFNDETDGHVDNFCCYIRPGEVLLAWTDDPEDPNYPRCHAALSILENTRDAQGRAFIVHKMPIPGPLFATEEECAGVDQVHGSQERNPSVRLAGSYVNFLIVNGGIIAPSFDDPMDEKAREILQKLFPEHEVVMAPGRELLLGGGNIHCLTQQQPAPFKALEHHHHHH	soluble
MTTLTLNTSLLSSRRILAAFSGGLDSTVLLHQLVLWRERHPDVTLRAIHIHHGLSPHADSWVRHCETVCERWQVPLVVERVTLADNGLGIEAHAREARYRAFAQTLLPGEVLATAQHLDDQCETFLLALKRGSGPAGLSAMGERSPFAGTLLLRPLLRETRKTLEQWAVRHGLCWIEDESNQDDAYDRNFLRLRALPLLQQRWPHFPAAVARSATLCAEQERLLDELLASDLTDCITAEGTLRLSPLMSMSDVRRAAILRRWLAMRNAPMPSRDALERIWQEVALARDDASPCLRFGDHEIRRYQSQLWWIKSVAGQHETTVAWPVWQTPLALPAGLGTVQLVPGGELRRPREEESVSIRFKAPGVLHIVGRNGGRKLKKIWQEQGIPPWRRDTTPLLFYGETLIAAAGVFVTREGAAEDKEGVSLVWHA	not soluble
MTTNLTNSNCVEEYKENGKTKIRIKPFNALIELYHHQTPTGSIKENLDKLENYVKDVVKAKGLAIPTSGAFSNTRGTWFEVMIAIQSWNYRVKRELNDYLIIKMPNVKTFDFRKIFDNETREKLHQLEKSLLTHKQQVRLITSNPDLLIIRQKDLIKSEYNLPINKLTHENIDVALTLFKDIEGKCKWDSLVAGVGLKTSLRPDRRLQLVHEGNILKSLFAHLKMRYWNPKAEFKYYGASSEPVSKADDDALQTAATHTIVNVNSTPERAVDDIFSLTSFEDIDKMLDQIIKK	soluble
MTTNSSSNTVVVYHSGYGHTHRMAEAVAEGAEATLHAIDAEGNLSEDGWAALDAADAIIFGTPTYMGGPSWQFKKFADASSKPWFSAKWQDKVFGGFTNSASLNGDKLNTLQYLVLLAGQHGGLWVSLGIKPSNLKSSVRNDANRMGSYIAPMAQSDADAAPEEMSVGDLETARLYGARVANVARQHKSTERV	soluble
MTTRNPNRCPSHPGEILAESLEHLNASKTEIARILQISRQHLHGILKGERPVTAVTAARIGKLLGNGPALWLQLQANYDTWHALRDIDVSSIPTLTANEVDTQMEHSHS	not soluble
MTTSLHRLEALAHPARVRIVRLLAELPDEETAKDPRCGTAYGVCFCHLKEKTGLSAPTVSHHLRILREAGLVEGVRVGRWTYYRLRPGALEAVARELLGLAQRARALEERSA	soluble
MTTVFDVPAAEMIDKLAGILKENENVVPPQWAGNVKTGVHKDLPPTNDDWWYVRCAAVLRKIYTDGPIGIERLRSVYGGKKDNGSQPYHKAKGSGSIARKSVQQLEAAGFLQKVKDGRTVSAKGRSMMDNAAHELKQELLEKIPELAKYLEHHHHHH	soluble
MTVDFYSFAKGIVKGVLTPFYRIQTIGIEQFPKEGGVLLCANHISNLDPPVIGITAPRPIRFMAKEELFRAPVVKTLVKSLHAFPVKRGMNDRQALRTGLEVLKQGEVLGIFPEGTRSKDGRLKKALPGVGFFALRTDAAVVPCAIVGPYRPFVPLKVVYGAPVDMAPLRARKASPEEAADYIMDHIRRLLEEHQRA	not soluble
